According to publication PMC6658569:

System: PurR (Escherichia coli K12?)
Assay: MST
Settings: panel assigned by order of figure text (h before i); EMSA: binding buffer 250 mM Tris pH 6.8, 150 mM NaCl, 5 mM EDTA, 10 mM DTT, 50% glycerol; 8% PAGE in 20 mM Tris-borate, 1 mM EDTA pH 8.0, 4 C, 80 V, EB stain …

Row | Substance | Kd [µM]
1 | glyA promoter (212 bp) | 239
2 | kbl promoter (208 bp) | 7.11
